According to PMC5693923 (2017):

Target: TLR4 extracellular domain 24-631 (Homo sapiens, UniProt O00206)
Test: solid phase binding assay

Chain of TLR4 extracellular domain 24-631 (O00206 24-631): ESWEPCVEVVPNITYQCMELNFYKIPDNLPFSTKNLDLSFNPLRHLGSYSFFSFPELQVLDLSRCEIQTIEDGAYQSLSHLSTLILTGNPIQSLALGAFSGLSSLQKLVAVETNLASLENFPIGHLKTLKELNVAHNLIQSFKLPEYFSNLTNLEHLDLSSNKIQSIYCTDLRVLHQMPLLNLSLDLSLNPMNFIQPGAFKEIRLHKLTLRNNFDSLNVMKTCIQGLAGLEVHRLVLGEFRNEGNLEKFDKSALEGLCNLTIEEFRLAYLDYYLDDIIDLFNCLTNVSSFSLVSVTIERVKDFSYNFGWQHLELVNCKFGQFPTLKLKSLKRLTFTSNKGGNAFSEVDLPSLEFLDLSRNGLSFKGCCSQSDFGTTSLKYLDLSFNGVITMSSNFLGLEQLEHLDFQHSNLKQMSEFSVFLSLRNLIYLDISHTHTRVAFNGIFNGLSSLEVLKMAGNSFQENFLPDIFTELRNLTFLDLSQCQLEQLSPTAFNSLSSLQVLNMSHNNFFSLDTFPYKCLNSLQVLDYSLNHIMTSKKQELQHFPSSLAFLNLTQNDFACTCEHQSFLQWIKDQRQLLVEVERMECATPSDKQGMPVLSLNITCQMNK

B1: Tenascin-W FBG domain (FBG-W) 1060-1300 (protein)
chain: VGARFPHPSDCSQVQQNSNAASGLYTIYLHGDASRPLQVYCDMETDGGGWIVFQRRNTGQLDFFKRWRSYVEGFGDPMKEFWLGLDKLHNLTTGTPARYEVRVDLQTANESAYAIYDFFQVASSKERYKLTVGKYRGTAGDALTYHNGWKFTTFDRDNDIALSNCALTHHGGWWYKNCHLANPNGRYGETKHSEGVNWEPWKGHEFSIPYVELKIRPHGYSREPVLGRKKRTLRGRLRTF
- Kd: ~55 nM

B2: Tenascin-R FBG domain (FBG-R) 1128-1359 (protein)
chain: GGRVFPHPQDCAQHLMNGDTLSGVYPIFLNGELSQKLQVYCDMTTDGGGWIVFQRRQNGQTDFFRKWADYRVGFGNVEDEFWLGLDNIHRITSQGRYELRVDMRDGQEAAFASYDRFSVEDSRNLYKLRIGSYNGTAGDSLSYHQGRPFSTEDRDNDVAVTNCAMSYKGAWWYKNCHRTNLNGKYGESRHSQGINWYHWKGHEFSIPFVEMKMRPYNHRLMAGRKRQSLQF
- Kd: ~55 nM
